Measured values as given in US6828121.

Biological target: humanized anti-CD18 kappa light chain

B1: Prc protease (periplasmic C-terminal processing protein) (protein)
chain: VEDITRADQIPVLKEETQHATVSERVTSRFTRSHYRQFDLDQAFSAKIFDRYLNLLDYSHNVLLASDVEQFAKKKTELGDELRSGKLDVFYDLYNLAQKRRFERYQYALSVLEKPMDFTGNDTYNLDRSKAPWPKNEAELNALWDSKVKFDELSLKLTGKTDKEIRETLTRRYKFAIRRLAQTNSEDVFSLAMTAFAREIDPHTNYLSPRNTEQFNTEMSLSLEGIGAVLQMDDDYTVINSMVAGGPAAKSKAISVGDKIVGVGQTGKPMVDVIGWRLDDVVALIKGPKGSKVRLEILPAGKGTKTRTVTLTRERIRLEDRAVKMSVKTVGKEKVGVLDIPGFYVGLTDDVKVQLQKLEKQNVSSVIIDLRSNGGGALTEAVSLSGLFIPAGPIVQVRDNNGKVREDSDTDGQVFYKGPLVVLVDRFSASASEIFAAAMQDYGRALVVGEPTFGKGTVQQYRSLNRIYDQMLRPEWPALGSVQYTIQKFYRVNGGSTQRKGVTPDIIMPTGNEETETGEKFEDNALPWDSIDAATYVKSGDLTAFEPELLKEHNARIAKDPEFQNIMKDIARFNAMKDKRNIVSLNYAVREKENNEDDATRLARLNERFKREGKPELKKLDDLPKDYQEPDPYLDETVNIALDLAKLEKARPAEQPAPVK
- kappa LC cleavage (LC clips on 1-D/2-D gels and peak 1 of the AME5/RP assay in prc-plus against prc-deletion strains): Here it is shown that Prc is the only protease involved in kappa LC cleavage inside E. coli cells.
